Laboratory results from the supplement of paper PMC9170038.

System: MS2 coat protein
Experiment: apparent KD of MS2 coat protein, switch OFF state (with FMN for OFF switches, without FMN for ON switches); designed switch direction (-1 OFF switch, 1 ON switch): 1; higher = weaker reporter binding
Conditions: FMN input: 0 or 200 uM; Eterna round: R93 (includes R88 designs)
How it was run: (§1)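 Apparent KD stands for the median, per design, of fits to normalised cluster binding curves. The curves came from titrating on-chip-transcribed RNA switches on Illumina sequencing clusters with SNAP-549-labelled MS2 coat protein, twofold from 0.7 or 1.5 nM to 3 µM. Buffer was 100 mM Tris-HCl pH 7.5, 80 mM KCl, 4 mM MgCl2, without or with constant ligand.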

| Sequence | apparent KD of MS2 coat protein [nM] |
| --- | --- |
| AAAAGACAUGAGGAUCACCCAUGUCCUCGGACAUGAGGAUAUGUACAGACUUCGGUCUGUACAGAAGGCAUAAAAA [SS1 - 1063] | 349 |
| AAAAAAAAAAGUGAGGAUAUGGGAAAAUUAACAUGAGGAUCACCCAUGUGAUAAAAAAAAAAAAACCAGAAGGUACAAAAAAAAA [Original 73%, More Wateronthemoon, 1] | 42.3 |
| AAUACACAUGAGGAUCACCCAUGUAGAAAGAAGUCAGGAUAUCCGAUCCACAUGUGAUAAGGAGAAGGGACAAUAA [SS 1 Tesla 8] | 95.4 |
| AAAGAAAAACUAGAGGAUAUCCGAAUGGUAACAUGAGGAUCACCCAUGUGAAGAAAGGAACAUGAGGAGAAGGCUAGAAGAAAAA [JL Nando mod 10] | 23.4 |
| AAAAAACAUGAGGAUCACCCAUGUAGAAAUAUGGGAGGAUAUGGAAACACGAAAGUGAAACCAGAAGGCUCAAAAG [77%, Mat - Mod of Eli, 8] | 69.5 |
| AACCAACAUGAGGAUCACCCAUGUCAACCCAAGCGAGGAUAUCCGAGAAUAACAAUGGGAGGAGAAGGCGCGACCU [ss1] | 39 |
| AUAAAACAUGAGGAUCACCCAUGUCAAGGCUAUCAAGGAUAUAGGAAGCGUAGCGGUUGACUAGAAGGUGAGAAAU [Ragexequ] | 52.4 |
| AAAAAAAAAAGACAGGAUAUACAAUAUAUUACAUGAGGAUCACCCAUGUUUUUUUUUUAAUUAAAGUAGAAGGGUCAAAAAAAAAA [SS 2.1] | 30.3 |
| AAAAAAUAAAAAAAGGAUAUAAUGCUACAGACAUGAGGAUCACCCAUGUAGGUAGCAAAAAUAAAAAAGAAGGAAAAAUAAAAAA [SS2: MS2 31] | 13.1 |
| AAAAUAAAAUAAAAGGAUAUAAAAUAAAAAACAUGAGGAUCACCCAUGUAAAAACAUGGGAAAAAAAAGAAGGAAAAAUAAAAAA [SS2: 71 No MS2] | 1280 |

System: MS2 coat protein
Experiment: apparent KD of MS2 coat protein, switch ON state; designed switch direction (-1 OFF switch, 1 ON switch): -1; higher = weaker reporter binding
Conditions: FMN input: 0 or 200 uM; Eterna round: R93 (includes R88 designs)
How it was run: as §1

| Sequence | apparent KD of MS2 coat protein [nM] |
| --- | --- |
| AGUAGUACAGGAUAUACAUGAGGAUCACCCAUGUGAAAAUAAAGUGGCGUACCACAAAGUAGAAGGGUACUACA [Mat - Exclusion 3 - JL mod - D35] | 27.9 |
| CUCAUGUCAGGAUAUGUAGCAUGAUACGAAAGUAUCAUGCUACAGAAGGGACAUGAGGAUCACCCAUGUCCAAA [Ex4: 944] | 119 |
| GAAAAGAAAGGAUAUAAAACAGAGGAUAUACAUAAAUAAAAACAUGAGGAUCACCCAUGUAGAAGGCUGAAAAG [Meechl Ex2 R2 m2] | 33.2 |
| AAAAAGUGAGGAUAUUCGGAUAGGAAAACGAAAACCUAUCCGAAGAAGGCACAUGAGGAUCACCCAUGUGAGAA [67% Ecls-II - Early G + late G segment 4] | 26.5 |
| AAAAAGUGAGGAUAUACAUGAGGAUCACCCAUGUGUAUAAAAAAAUACACAAAAGAAAGUAGAAGGCACUAAAG [Mat - Exclusion 3 - Mayanna mod - D109] | 28.4 |
| AGUCAGAGAGGAUAUACAAGGGAAAAAAAAGUUAGAUCCCUACAUGAGGAUCACCCAUGUAGAAGGCUCUGACA [Ex2 Design 152: Sub-opt 16] | 108 |
| AAAAAACAUGAGGAUCACCCAUGUCAGGAUAUCUGUAAAAAUUAAAAAAAUAAAAUACAGAGAAGGGACAUAAA [Ex1: 606] | 44 |
| GGUUGGCGAGGAUAUACAUGAGGAUCACCCAUGUGAGAGAAAAAAGUGAGAAAGAAAAGUAGAAGGCGCUGACU [salish99-ex3-04] | 54.5 |
| AAAACUGGAGGAUAUACAUGAGGAUCACCCAUGUGUGGAUGAGCUGAAACGGCAUCACGUAGAAGGCCACAAAA [Gilly Gone Silly 40 - Jieux - Exclusion 3] | 35.3 |
| AAAACUCGAGGAUAUGCAAAAUGAUUGCGAAAGCAAUCAAAACAUGAGGAUCACCCAUGUAGAAGGCGAGAAAA [Mat - Mod of Eli] | 23.5 |
| AACAGGACAGGAUAUACAUGAGGAUCACCCAUGUAGGAAACAAGCAGAGUACCAAAAAGUAGAAGGGUCAUGGA [Ruby 30] | 38.8 |
| AAAAGACAUGAGGAUCACCCAUGUGAGGAUAUGACGUAAAGAAAGAAAGAAGAAAUCGUCAGAAGGCACACCUA [Mat - Exclusion 1 - Eli mod - D68] | 31.6 |
| AAAUUGUCAGGAUAUCGUAUAACAUGGAAAACAUGGAGAUACGAGAAGGGACAUGAGGAUCACCCAUGUAAAAC [May 95] | 51.6 |
| GGGAUGUCAGGAUAUGUGUAAAGAAUAAAACAAAUAACAACACAGAAGGGACAUGAGGAUCACCCAUGUUACCC [May 39] | 17 |
| AAGAAACAUGAGGAUCACCCAUGUAAGGAUAUCUAAAAGAAAAGAAAAGAAAGAAGAAGGAGAAGGUACAAAGG [Sehertawy Intef I] | 26.1 |
| AAGGUAUGAGGAUAUACAUAGAUACAGACACAUGUUCAAGUACAUGAGGAUCACCCAUGUAGAAGGCAUAUAUA [AJ 14] | 24.2 |
| AAAAUGGCAGGAUAUACUAAAAUAAAAAACUAUGCUAAAACACAUGAGGAUCACCCAUGUAGAAGGGCCAAAAA [AJ 5] | 26.2 |

| Sequence | apparent KD of MS2 coat protein [nM] |
| --- | --- |
| AAGAAAGCAGGAUAUACAAAAUAAAAGAAAAGAAAGAAAGAACAUGAGGAUCACCCAUGUAGAAGGGCUAAGAA [Khahotepre Sobekhotep VI] | 38 |
| AAAAAACAUGAGGAUCACCCAUGUGAGGAUAUCGAAAAGUUAAAGAAAAAGACGAAAAUGAGAAGGCGCAAAAA [Fiskers Exclusion D1] | 26.3 |
| AAAACACAUGAGGAUCACCCAUGUGAGGAUAUGCGAGUGAAAAUAAAAAUAAAACAUAGCAGAAGGCACAAGGA [Amethyst 80] | 35.9 |
| AGUUGGCGAGGAUAUACAUGAGGAUCACCCAUGUGAGAGUAAAAAGUGAGAAAGAAAAGUAGAAGGCGCUAACA [JL Lego Mod 19] | 48.8 |
| CUCUAGUGAGGAUAUACAAGAAAAGAAGAGAAAGAAAAGAAGUAGAAGGCACAUGAGGAUCACCCAUGUAAGAA [EteRNA is fun!] | 24.7 |
| AAUUCACAUGAGGAUCACCCAUGUAAGGAUAUCGAAAUAAAACUAAUCAAAAAACAAACGAGAAGGUACAAAAA [Exclusion 1 design 7] | 23.6 |
| AAAGGACAUGAGGAUCACCCAUGUGAGGAUAUGCGAAAAAAAAAAAUAAAAAAAAAAAGUAGAAGGCACACCAA [Mat - Exclusion 1 - Eli mod - D57] | 99.4 |
| AAAGGGUCAGGAUAUGUACGAACAACAAAACAAAUAACGGUACAGAAGGGACAUGAGGAUCACCCAUGUAUAAA [May 73] | 51.9 |
| GGUUGGCGAGGAUAUACAUGAGGAUCACCCAUGUGAGAGAAAAAAGUGAGAAAGAAAAGUAGAAGGUGUUGACG [salish99-ex3-70] | 55.4 |
| CUCAUGUGAGGAUAUGUACAGAAAAAAAUGGGUGAAACUGUACAGAAGGCACAUGAGGAUCACCCAUGUGCAAA [EX4 377: S S Pseudoknot 2] | 19.1 |
| AAAGGACAUGAGGAUCACCCAUGUGAGGAUAUGACGUAAAUAAAGAAAGAAGAAAUCGUCAGAAGGCACACCUA [55%, Disencluded 2, 2] | 40.7 |
| UUUAAGUGAGGAUAUACGAAUAGUAAGUAAGUAUAACAGACGUAGAAGGCACAUGAGGAUCACCCAUGUAAAUA [JR_Exc004_Sub305] | 24.4 |
| AAAAAUUGAGGAUAUACGUACAUGUCGAAAGACGUGAAGGGACAUGAGGAUCACCCAUGUAGAAGGCGAAAAAA [Mat - Exclusion 2 - JL mod - D73] | 45.6 |
| AUUAAGUGAGGAUAUGAGUGAACAACAAAACAAAUAACGACUCAGAAGGCACAUGAGGAUCACCCAUGUAUAAA [May 69] | 31.7 |
| UCACACCUAGGAUAUACAUGAGGAUCACCCAUGUGGCACUCCGCAGGCAUUGCUCCCAGUAGAAGGAGGACACG [Veterexe] | 18.9 |
| AAAAAUCGAGGAUAUACAUGAGGAUCACCCAUGUGGGAACACGAUUACACAAAAGAAAGUAGAAGGCGAUAAAA [Ex 3 May 22] | 28.2 |
